In patent US20130195871A1 (AbbVie / Abbott, published 2013):

Columns and labels:
[1] = target: T1, Recombinant Human ErbB3/FC Chimera-His tag (human, UniProt P21860 20-643); test: SPR (Biacore), C-terminal VD;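 also: surface plasmon resonance with DVD-Ig proteins captured on an anti-IgG chip and recombinant antigen flowed over in HBS-EP buffer, Langmuir global fit, KD taken as koff/kon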
T1 construct: bought reagent

[2] = target: T2, Recombinant Human MSP Receptor ECD-His tag (human, UniProt Q04912 25-957); test: SPR (Biacore), N-terminal VD;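 also: capture of antibodies or DVD-Ig proteins on an anti-mouse IgG chip surface, recombinant antigen injected at 10–200 nM in HBS-EP running buffer at 25 °C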
T2 construct: extracellular domain; bought reagent; also called RON
Procedure: The BIACORE assay (Biacore, Inc, Piscataway, N.J.) determined the affinity of antibodies or DVD-Ig proteins with kinetic measurements of on-rate and off-rate constants. Binding of antibodies or DVD-Ig proteins to a target antigen (for example, a purified recombinant target antigen) was determined by surface plasmon resonance-based measurements with a Biacore® 1000 or 3000 instrument (Biacore AB, Uppsala. Sweden) using running HBS-EP (10 mM HEPES [pH 7.4], 150 mM NaCl, 3 mM EDTA, and 0.005% surfactant P20) at 25° C. […] For example, approximately 5000 RU of goat anti-mouse IgG, (Fcγ), fragment specific polyclonal antibody (Pierce Biotechnology Inc, Rockford, Ill.) diluted in 10 mM sodium acetate (pH 4.5) was directly immobilized across a CM5 research grade biosensor chip using a standard amine coupling kit according to manufacturer's instructions and procedures at 25 μg/ml. Unreacted moieties on the biosensor surface were blocked with ethanolamine. Modified carboxymethyl dextran surface in flowcell 2 and 4 was used as a reaction surface. Unmodified carboxymethyl dextran without goat anti-mouse IgG in flow cell 1 and 3 was used as the reference surface. For kinetic analysis, rate equations derived from the 1:1 Langmuir binding model were fitted simultaneously to association and dissociation phases of all eight injections (using global fit analysis) with the use of Biaevaluation 4.0.1 software. Purified antibodies or DVD-Ig proteins were diluted in HEPES-buffered saline for capture across goat anti-mouse IgG specific reaction surfaces. Antibodies or DVD-Ig proteins to be captured as a ligand (25 μg/ml) were injected over reaction matrices at a flow rate of 5 μl/minute. The association and dissociation rate constants, kₒₙ (M⁻¹s⁻¹) and koff (s⁻¹) were determined under a continuous flow rate of 25 μl/minute. Rate constants were derived by making kinetic binding measurements at different antigen concentrations ranging from 10-200 nM. The equilibrium dissociation constant (M) of the reaction between antibodies or DVD-Ig proteins and the target antigen was then calculated from the kinetic rate constants by the following formula: KD=koff/kₒₙ. Binding was recorded as a function of time and kinetic rate constants were calculated.

[3] = target: T3, ErbB3 on the cell surface (human, UniProt P21860 20-1342); test: flow cytometry on cells, 2 ug/mL;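 also: cells stained for 30 to 60 min on ice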
T3 construct: whole, on cells
Procedure: (§1) Stable cell lines overexpressing a cell-surface antigen of interest or human tumor cell lines were harvested from tissue culture flasks and resuspended in phosphate buffered saline (PBS) containing 5% fetal bovine serum (PBS/FBS). Prior to staining, human tumor cells were incubated on ice with (100 μl) human IgG at 5 μg/ml in PBS/FCS. 1-5×10⁵ cells were incubated with antibody or DVD-Ig (2 μg/mL) in PBS/FBS for 30-60 minutes on ice. […] After 30 minutes incubation on ice, cells were washed twice and resuspended in PBS/FBS. Fluorescence was measured using a Becton Dickinson FACSCalibur (Becton Dickinson, San Jose, Calif.).
(§2) The geometric mean is the n root of the multiplication product of n fluorescent signals (a1×a2×a3 . . . an). With log-transformed data the geometric mean is used to normalize the weighting of the data distribution.

[4] = target: T4, EGFR on the cell surface (human, UniProt P00533 25-1210); test: flow cytometry on cells, 2 ug/mL, N-terminal VD;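 also: cells stained for 30 to 60 min on ice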
T4 construct: whole, on cells
Procedure: as §1, §2

[5] = target: T3, ErbB3 on the cell surface; test: flow cytometry on cells, 2 ug/mL, C-terminal VD;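 also: cells stained for 30 to 60 min on ice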
Procedure: as §1, §2

B1: DVD2322 (bispecific antibody)
VH: EVQLVQSGGGLVKPGGSLRLSCAASGFTFSSYAMHWVRQAPGKGLEWVAVISYDGSNKYYADSVKGRFTISRDNSKNTLYLQMNSLRAEDTAVYYCARFSGWPNNYYYYGMDVWGQGTTVTVSSASTKGPQVQLQQWGAGLLKPSETLSLTCAVYGGSFSGYYWSWIRQPPGKGLEWIGEINHSGSTNYNPSLKSRVTISVETSKNQFSLKLSSVTAADTAVYYCARDKWTWYFDLWGRGTLVTVSS
VL: DVVMTQSPLSLPVTPGEPASISCRSSQSLLHSNGFNYVDWYLQKPGQSPHLLIYFGSYRASGVPDRFSGSGSGTDFTLKISRVEAEDVGVYYCMQALQTPPWTFGQGTKVEIRRTVAAPDIEMTQSPDSLAVSLGERATINCRSSQSVLYSSSNRNYLAWYQQNPGQPPKLLIYWASTRESGVPDRFSGSGSGTDFTLTISSLQAEDVAVYYCQQYYSTPRTFGQGTKVEIK
notes: DVD-Ig, outer AB005 / inner AB062
[1]
  binding result: no binding (tested: 10-200 nM)
[2]
  Kd: 17 nM
  koff: 0.00087 s⁻¹
  kon: 51000 M⁻¹ s⁻¹

B2: AB062 (antibody, V domains shown)
VH: QVQLQQWGAGLLKPSETLSLTCAVYGGSFSGYYWSWIRQPPGKGLEWIGEINHSGSTNYNPSLKSRVTISVETSKNQFSLKLSSVTAADTAVYYCARDKWTWYFDLWGRGTLVTVSS
VL: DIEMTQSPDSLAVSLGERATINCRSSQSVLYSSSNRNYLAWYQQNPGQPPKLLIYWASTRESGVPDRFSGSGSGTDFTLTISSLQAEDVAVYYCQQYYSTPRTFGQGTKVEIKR
notes: parent antibody
[3]
  GEO MEAN: 132

B3: DVD2334 (bispecific antibody)
VH: QVQLQESGPGLVKPSEILSLTCTVSGGSISSHYWSWVRQPPGKGLEWIGYIYYSGSTNYNPSLKSRVTISVDTSKNQFSLNLSSVTAADTAVYYCARIPNYYDRSGYYPGYWYFDLWGRGTLVTVSSASTKGPQVQLQQWGAGLLKPSETLSLTCAVYGGSFSGYYWSWIRQPPGKGLEWIGEINHSGSTNYNPSLKSRVTISVETSKNQFSLKLSSVTAADTAVYYCARDKWTWYFDLWGRGTLVTVSS
VL: QAVLTQPSSLSAPPGASASLTCTLRSGFNVDSYRISWYQQKPGSPPQYLLRYKSDSDKQQGSGVPSRFSGSKDASANAGILLISGLQSEDEADYYCMIWHSSAWVFGGGTKLTVLRQPKAAPDIEMTQSPDSLAVSLGERATINCRSSQSVLYSSSNRNYLAWYQQNPGQPPKLLIYWASTRESGVPDRFSGSGSGTDFTLTISSLQAEDVAVYYCQQYYSTPRTFGQGTKVEIK
notes: DVD-Ig, outer AB034 / inner AB062
[1]
  binding result: no binding (tested: 10-200 nM)
[2]
  Kd: 4.9 nM

B4: DVD2332 (bispecific antibody)
VH: QVQLQESGPGLVKPSEILSLTCTVSGGSISSHYWSWVRQPPGKGLEWIGYIYYSGSTNYNPSLKSRVTISVDTSKNQFSLNLSSVTAADTAVYYCARIPNYYDRSGYYPGYWYFDLWGRGTLVTVSSASTKGPEVQLLESGGGLVQPGGSLRLSCAASGFTFSHYVMAWVRQAPGKGLEWVSSISSSGGWTLYADSVKGRFTISRDNSKNTLYLQMNSLRAEDTAVYYCTRGLKMATIFDYWGQGTLVTVSS
VL: QAVLTQPSSLSAPPGASASLTCTLRSGFNVDSYRISWYQQKPGSPPQYLLRYKSDSDKQQGSGVPSRFSGSKDASANAGILLISGLQSEDEADYYCMIWHSSAWVFGGGTKLTVLRQPKAAPQSALTQPASVSGSPGQSITISCTGTSSDVGSYNVVSWYQQHPGKAPKLIIYEVSQRPSGVSNRFSGSKSGNTASLTISGLQTEDEADYYCCSYAGSSIFVIFGGGTKVTVL
notes: DVD-Ig, outer AB034 / inner AB116
[1]
  binding result: no binding (tested: 10-200 nM)
[2]
  binding result: no binding (tested: 10-200 nM)

B5: DVD2294 (bispecific antibody)
VH: EVQLVESGGGLVQPGGSLRLSCAASGFSLTNYGVHWVRQAPGKGLEWLGVGWSGGNTDYNTPFTSRLTINKDNSKNTVYLQMNSLRAEDTAVYYCARALTWYDYEFAYWGQGTLVTVSSASTKGPEVQLLESGGGLVQPGGSLRLSCAASGFTFSHYVMAWVRQAPGKGLEWVSSISSSGGWTLYADSVKGRFTISRDNSKNTLYLQMNSLRAEDTAVYYCTRGLKMATIFDYWGQGTLVTVSS
VL: DILLTQSPGTLSLSPGERATLSCRASQSIYTNIHWYQQKPGQAPRLLIKYASESISGIPDRFSGSGSGTDFTLTISRLEPEDFAVYYCQQNLNWPTTFGQGTKLEIKRTVAAPQSALTQPASVSGSPGQSITISCTGTSSDVGSYNVVSWYQQHPGKAPKLIIYEVSQRPSGVSNRFSGSKSGNTASLTISGLQTEDEADYYCCSYAGSSIFVIFGGGTKVTVL
notes: DVD-Ig, outer AB400 / inner AB116
[4]
  GEO MEAN: 618
[5]
  GEO MEAN: 15

B6: DVD2296 (bispecific antibody)
VH: EVQLVESGGGLVQPGGSLRLSCAASGFSLTNYGVHWVRQAPGKGLEWLGVGWSGGNTDYNTPFTSRLTINKDNSKNTVYLQMNSLRAEDTAVYYCARALTWYDYEFAYWGQGTLVTVSSASTKGPQVQLQQWGAGLLKPSETLSLTCAVYGGSFSGYYWSWIRQPPGKGLEWIGEINHSGSTNYNPSLKSRVTISVETSKNQFSLKLSSVTAADTAVYYCARDKWTWYFDLWGRGTLVTVSS
VL: DILLTQSPGTLSLSPGERATLSCRASQSIYTNIHWYQQKPGQAPRLLIKYASESISGIPDRFSGSGSGTDFTLTISRLEPEDFAVYYCQQNLNWPTTFGQGTKLEIKRTVAAPDIEMTQSPDSLAVSLGERATINCRSSQSVLYSSSNRNYLAWYQQNPGQPPKLLIYWASTRESGVPDRFSGSGSGTDFTLTISSLQAEDVAVYYCQQYYSTPRTFGQGTKVEIK
notes: DVD-Ig, outer AB400 / inner AB062
[4]
  GEO MEAN: 490
[5]
  GEO MEAN: 16.6

B7: AB063 (antibody, V domains shown)
VH: EVQLVESGGGLVQPGGSLRLSCAASGFTFSIYSMNWVRQAPGKGLEWVSYISSSSSTIYYADSVKGRFTISRDNAKNSLYLQMNSLRDEDTAVYYCARDRGDFDAFDIWGQGTMVTVSS
VL: DIQMTQSPSSLSASVGDRVTITCQASQDITNYLNWYQQKPGKAPKLLIYDASNLETGVPSRFSGSGSGTDFTFTISSLQPEDIATYNCQQCENFPITFGQGTRLEIKR
notes: parent antibody
[3]
  GEO MEAN: 128

B8: AB067 (antibody, V domains shown)
VH: EVQLLESGGGLVQPGGSLRLSCAASGFTFSHYVMAWVRQAPGKGLEWVSSISSSGGWTLYADSVKGRFTISRDNSKNTLYLQMNSLRAEDTAVYYCTRGLKMATIFDYWGQGTLVTVSS
VL: QSALTQPASVSGSPGQSITISCTGTSSDVGSYNVVSWYQQHPGKAPKLIIYEVSQRPSGVSNRFSGSKSGNTASLTISGLQTEDEADYYCCSYAGSSIFVIFGGGTKVTVLG
notes: parent antibody
[3]
  GEO MEAN: 127

B9: DVD2292 (bispecific antibody)
VH: EVQLVESGGGLVQPGGSLRLSCAASGFSLTNYGVHWVRQAPGKGLEWLGVGWSGGNTDYNTPFTSRLTINKDNSKNTVYLQMNSLRAEDTAVYYCARALTWYDYEFAYWGQGTLVTVSSASTKGPEVQLVESGGGLVQPGGSLRLSCAASGFTFSIYSMNWVRQAPGKGLEWVSYISSSSSTIYYADSVKGRFTISRDNAKNSLYLQMNSLRDEDTAVYYCARDRGDFDAFDIWGQGTMVTVSS
VL: DILLTQSPGTLSLSPGERATLSCRASQSIYTNIHWYQQKPGQAPRLLIKYASESISGIPDRFSGSGSGTDFTLTISRLEPEDFAVYYCQQNLNWPTTFGQGTKLEIKRTVAAPDIQMTQSPSSLSASVGDRVTITCQASQDITNYLNWYQQKPGKAPKLLIYDASNLETGVPSRFSGSGSGTDFTFTISSLQPEDIATYNCQQCENFPITFGQGTRLEIK
notes: DVD-Ig, outer AB400 / inner AB063
[4]
  GEO MEAN: 519
[5]
  GEO MEAN: 20.6
